The source of these data is publication PMC3020918.

The target of this test is YFP(N)-Sso1p (S. cerevisiae) (UniProt P32867). Nature of the test: split reporter.
UniProt P32867, sequence (P32867 whole entry): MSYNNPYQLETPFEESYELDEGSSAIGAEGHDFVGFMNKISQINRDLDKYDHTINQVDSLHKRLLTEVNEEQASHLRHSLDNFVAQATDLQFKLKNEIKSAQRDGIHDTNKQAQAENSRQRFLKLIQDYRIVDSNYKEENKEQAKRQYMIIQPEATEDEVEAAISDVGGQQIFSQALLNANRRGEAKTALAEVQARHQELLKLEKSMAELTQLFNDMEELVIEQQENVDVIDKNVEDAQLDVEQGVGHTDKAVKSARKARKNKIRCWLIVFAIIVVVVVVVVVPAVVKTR

Consider “Sec1p(658–724)-YFP(C) (from UniProt P30619 658-724) (domain or fragment)”, for which the percent stronger BiFC signal than Sec1p(658–724)-Sso2p is 22%.
